The target in the experiment is N‐10/C‐9 fusion PD (human). Description: SPR; PDs of BMP‐9, BMP‐10 and N‐10/C‐9 fusion PD immobilised at 450 RUs on a CM5 chip by amine coupling; BMP‐10 GF 0 to 80 nM, 1:2 serial dilutions, 1× HBS‐EP; 1:1 model with mass transfer; apparent KD = kd/ka.

B1: BMP‐10 GF (R&D Systems #2926‐BP‐025/CF) (ligand)
chain: NAKGNYCKRTPLYIDFKEIGWDSWIIAPPGYEAYECRGVCNYPLAEHLTPTKHAIIQALVHLKNSQKASKACCVPTKLEPISILYLDKGVVTYKFKYEGMAVSECGCR
One may read the koff as the rate constant with which the complex falls apart. In general, kon refers to a measure of how fast the partners come together. For B1, the Kd worked out at 13.2 nM, the koff amounted to 0.0032 s⁻¹ and the on-rate (kon) amounted to 220000 M⁻¹ s⁻¹.

(Values after PMC11806408.)
